Where “and” joins values, the source holds several entries; their conditions need not be identical. Equal values may be shown once. Each block holds one molecule with its values, some of them ahead of it. Bridge positions count the residues as written; N and C are the ends. Square brackets hold non-standard residues; d marks the D form. Ends that are not written are not given here. S5 = C=CCCC[C@](C)(N)C(=O)O
Tests used:
[1] = biological target: AH2, alpha-helical peptide 2 of N1DARP (human); test: SPR; BIAcore T200 (GE Healthcare); dissociation constant calculated with BIA-evaluation software; which partner was immobilised is not stated
Capan1 = test: IC50 assay, chemosensitivity to GEM; assay type: cell-based; details: Homo sapiens, CAPAN-1; Capan1, Vector; Fig. 5j
[2] = test system: metastatic pancreatic cancers; details: cited from earlier work; for remission in clinical studies: γ-secretase inhibitors, metastatic pancreatic cancers
Source text: The Notch pathway is active in a broad spectrum of human cancers, including breast, colorectal, lung, prostate, glioblastoma, and pancreatic cancer. Notch signaling is positively associated with pancreatic tumor initiation, progression, and drug resistance in both cell lines and genetic mutant mouse models[7],[8]. In preclinical models, pharmacological inhibition of Notch signaling by small molecules designed to affect HES1 transcriptional function (JI051 and JI130)[9] and natural agents targeting the Notch pathway, such as curcumin, genistein, quercetin, and sulforaphane, slowed tumor prol ...

[3] = biological target: N1ICD (wild type; source not stated) (UniProt P46531); test: co-IP followed by western blotting (band intensity); details: HEK293T, IgG control 0.00
ANK domain of N1ICD = ANK domain of N1ICD (Homo sapiens, UniProt P46531); test: SPR analysis, affinity for ANK domain; assay type: binding; details: mAH2 compared with AH2, Fig. S8E
Protocol: The binding kinetics between N1DARP or SAH-mAH2-5 and the indicated peptides were analyzed using a SPR assay with a BIAcore T200 instrument (GE Healthcare, Pittsburgh, PA, USA). The dissociation constant was calculated using BIA-evaluation software.
309 was determined using reversed phase HPLC with electrospray ionization mass spectrometric detection.
311 Supplementary Note S1. Generation and modification of N1DARP-derived stapled peptide SAH-
313 To evaluate the therapeutic potential of disrupting the N1ICD-USP10 interaction with N1DARP and
314 define a more druggable target, we simulated the tertiary structure of N1DARP using I-TASSAR, a
315 hierarchical server for protein structure prediction4, and identified two α-helical peptides (AH1 and
316 AH2) (Fig. S8A, left panel).
318 we constructed and purified six subdomains with α-helix secondary structure of ANK, designated from
320 S8B-S8D). To optimize the physicochemical properties of AH2, we first checked the amino acid
322 cancer cells to AH2; therefore, we tried amino acid substitution of Glu32 by Gln32. SPR analysis
324 mAH2 (Fig. S8E). Next, to identify the indispensable amino acids mediating mAH2 and ANK
325 interactions, we substituted each amino acid of mAH2 with Ala, followed by SPR analysis. The results
328 i + 4, or i + 7) and denoted them as stapled α-helices (SAHs). […]

[4] = biological target: T1, ANK domain of Notch1 intracellular domain (N1ICD-ANK) (UniProt P46531 1927-2122); test: SPR; BIAcore T200 (GE Healthcare); dissociation constant calculated with BIA-evaluation software; which partner was immobilised is not stated; details: both partners purified
T1 construct: Notch1, ankyrin repeat (ANK) domain of the intracellular domain; the numbers fit human NOTCH1 (2555 aa); also called ANK repeat

[5] = biological target: T2, ANK domain of Notch3 intracellular domain (N3ICD-ANK) (UniProt Q9UM47 1838-2000); test: as above; details: both partners purified
T2 construct: Notch3, ANK domain of the intracellular domain; position 1838-2000, length 163 aa printed
T2 sequence (looked up): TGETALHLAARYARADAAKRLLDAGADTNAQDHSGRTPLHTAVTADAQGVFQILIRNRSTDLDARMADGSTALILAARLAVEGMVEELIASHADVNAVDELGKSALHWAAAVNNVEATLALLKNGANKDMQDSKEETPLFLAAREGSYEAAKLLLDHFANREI

[6] = biological target: T3, ANK domain of Notch2 intracellular domain (N2ICD-ANK) (UniProt Q04721 1827-2038); test: as above; details: both partners purified
T3 construct: Notch2, ANK domain of the intracellular domain; position 1827-2038, length 212 aa printed
T3 sequence (looked up): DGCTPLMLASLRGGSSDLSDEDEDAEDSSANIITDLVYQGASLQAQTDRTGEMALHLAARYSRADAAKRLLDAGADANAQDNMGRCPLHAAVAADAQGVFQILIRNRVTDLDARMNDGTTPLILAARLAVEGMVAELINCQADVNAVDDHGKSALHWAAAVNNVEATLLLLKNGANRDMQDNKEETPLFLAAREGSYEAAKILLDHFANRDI

[7] = biological target: T4, ANK domain of Notch4 intracellular domain (N4ICD-ANK) (UniProt Q99466 1633-1798); test: as above; details: both partners purified
T4 construct: Notch4, ANK domain of the intracellular domain; position 1633-1798, length 166 aa printed
T4 sequence (looked up): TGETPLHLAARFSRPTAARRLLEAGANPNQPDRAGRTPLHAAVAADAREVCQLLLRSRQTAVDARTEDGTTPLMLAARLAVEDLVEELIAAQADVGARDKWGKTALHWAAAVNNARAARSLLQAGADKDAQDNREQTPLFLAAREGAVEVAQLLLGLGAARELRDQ

[8] = IP: Anti-Flag (N1DARP-Flag), blot: Myc
[9] = IP: Anti-Myc (N1ICD-Myc), blot: Flag

Molecule: ANK6, subdomain of the ANK domain of N1ICD (from UniProt P46531 19-2555) (domain or fragment)
Kd [1]: 64200 nM

Molecule: Nc1ccn([C@@H]2O[C@H](CO)[C@@H](O)C2(F)F)c(=O)n1 [GEM, gemcitabine]
IC50 (Capan1): 44 nM

Molecule: O=C(O)CC[C@H]1CC[C@@](c2cc(F)ccc2F)(S(=O)(=O)c2ccc(Cl)cc2)CC1 [MK-0752]
remission in clinical studies [2]: no significant remission was observed

Molecule: tarextumab: fully human IgG2 antibody that inhibits Notch2/3 receptors
remission and tolerance, phase II study ([2]; metastatic pancreatic cancer, in combination with gemcitabine (GEM) and paclitaxel): remarkable remission and tolerance

Molecule: ANK5, subdomain of the ANK domain of N1ICD (from UniProt P46531 19-2555) (domain or fragment)
Kd [1]: 42800 nM

Molecule: ANK2, subdomain of the ANK domain of N1ICD (from UniProt P46531 19-2555) (domain or fragment)
Kd [1]: 23300 nM

Molecule: ANK3, subdomain of the ANK domain of N1ICD (from UniProt P46531 19-2555) (domain or fragment)
Kd [1]: 85800 nM

Molecule: CCC[C@H](N[C@H]1CCc2cc(F)cc(F)c2C1)C(=O)Nc1cn(C(C)(C)CNCC(C)(C)C)cn1 [PF-03084014]
remission in clinical studies [2]: no significant remission was observed

Molecule: ANK4, subdomain of the ANK domain of N1ICD (from UniProt P46531 19-2555) (domain or fragment)
Kd [1]: 66100 nM

Molecule: CC(C)(C(=O)NCC(F)(F)C(F)(F)F)C(=O)N[C@@H]1C(=O)Nc2ccccc2-c2ccccc21 [RO4929097]
remission in clinical studies [2]: no significant remission was observed

Molecule: ANK1, subdomain of the ANK domain of N1ICD (from UniProt P46531 19-2555) (domain or fragment)
Kd [1]: 43.4 nM

Molecule: YAKRI[S5]YQLLSK[S5]L (staple 6-13) [SAH-mAH2-5, N1DARP-derived stapled peptide]
Kd [4]: 0.898 nM
Kd [5]: 69 nM
Kd [6]: 539 nM
Kd [7]: 35.2 nM

Molecule: Y[S5]KRI[S5]YQLLSKQL (staple 2-6) [SAH-mAH2-2, stapled alpha-helix of mAH2]
Kd [4]: 97.7 nM

Molecule: [S5]AKR[S5]FYQLLSKQL (staple 1-5) [SAH-mAH2-1, stapled alpha-helix of mAH2]
Kd [4]: 134 nM

B1: AH1, alpha-helical peptide 1 of N1DARP (peptide)
peptide: LLEKKRQY
notes: N1DARP, 41-aa microprotein encoded by LINC00261 (ORF12); source: synthetic peptide (Chinese Peptide, Inc., Hangzhou; > 98% purity)
Kd [4]: 213 nM

Molecule: YAKRI[S5]YQL[S5]SKQL (staple 6-10) [SAH-mAH2-3, stapled alpha-helix of mAH2]
Kd [4]: 10.5 nM

B2: mAH2, AH2 of N1DARP with Glu32 substituted by Gln32 (peptide)
peptide: YAKRIFYQLLSKQL
notes: N1DARP (41 aa, encoded by LINC00261) residues 20-33 with E32Q; also called modified AH2; substituted AH2; source: synthetic peptide (Chinese Peptide, Inc., Hangzhou; > 98% purity)
Kd [4]: 60.4 nM and 45.2 nM

B5: mAH2-1, alanine mutant of mAH2 (peptide)
peptide: AAKRIFYQLLSKQL
notes: N1DARP residues 20-33 with E32Q and position 1 of the peptide (Y20) to Ala; source: synthetic peptide (Chinese Peptide, Inc., Hangzhou; > 98% purity)
Kd [4]: 96.1 nM

B12: AH2, alpha-helical peptide 2 of N1DARP (peptide)
peptide: YAKRIFYQLLSKEL
notes: N1DARP, 41-aa microprotein encoded by LINC00261 (ORF12); source: synthetic peptide (Chinese Peptide, Inc., Hangzhou; > 98% purity); 'purified AH2 peptide'
Kd [4]: 60.4 nM

B13: mAH2-5, alanine mutant of mAH2 (peptide)
peptide: YAKRAFYQLLSKQL
notes: N1DARP residues 20-33 with E32Q and position 5 of the peptide (I24) to Ala; source: synthetic peptide (Chinese Peptide, Inc., Hangzhou; > 98% purity)
Kd [4]: 57.5 nM

B14: mAH2-4, alanine mutant of mAH2 (peptide)
peptide: YAKAIFYQLLSKQL
notes: N1DARP residues 20-33 with E32Q and position 4 of the peptide (R23) to Ala; source: synthetic peptide (Chinese Peptide, Inc., Hangzhou; > 98% purity)
Kd [4]: 74.5 nM

B15: mAH2-3, alanine mutant of mAH2 (peptide)
peptide: YAARIFYQLLSKQL
notes: N1DARP residues 20-33 with E32Q and position 3 of the peptide (K22) to Ala; source: synthetic peptide (Chinese Peptide, Inc., Hangzhou; > 98% purity)
Kd [4]: 51.1 nM

Molecule: [S5]AKRIFY[S5]LLSKQL (staple 1-8) [SAH-mAH2-4, stapled alpha-helix of mAH2]
Kd [4]: 25.8 nM

Now from value to molecule:

response [3, 8]: 0.43
response [3, 9]: 0.31
Molecule: wild-type N1DARP (overexpressed) Y34A

response [3, 8]: 0.26
response [3, 9]: 0.35
Molecule: wild-type N1DARP (overexpressed) Y20A

response [3, 8]: 0.87
response [3, 9]: 1.07
Molecule: wild-type N1DARP (overexpressed) D41A

response [3, 8]: 0.91
response [3, 9]: 0.93
Molecule: wild-type N1DARP (overexpressed) G12A

response [3, 8]: 1.01
response [3, 9]: 0.87
Molecule: wild-type N1DARP (overexpressed) L28A

response [3, 8]: 0
response [3, 9]: 0
Molecule: wild-type N1DARP (overexpressed) Y20A; Y34A

affinity for ANK after substitution of Glu32 by Gln32 (ANK domain of N1ICD): comparable affinity
Molecule: mAH2: AH2 with amino acid substitution of Glu32 by Gln32 (YAKRIFYQLLSKQL)

Kd [4]: 78.2 nM
B3: mAH2-12, alanine mutant of mAH2 (peptide)
peptide: YAKRIFYQLLSAQL
notes: N1DARP residues 20-33 with E32Q and position 12 of the peptide (K31) to Ala; source: synthetic peptide (Chinese Peptide, Inc., Hangzhou; > 98% purity)

Kd [4]: 5960 nM
B4: mAH2-14, alanine mutant of mAH2 (Leu33 to Ala) (peptide)
peptide: YAKRIFYQLLSKQA
notes: N1DARP residues 20-33 with E32Q and position 14 of the peptide (Leu33) to Ala; source: synthetic peptide (Chinese Peptide, Inc., Hangzhou; > 98% purity)

Kd [4]: 87.4 nM
B6: mAH2-8, alanine mutant of mAH2 (peptide)
peptide: YAKRIFYALLSKQL
notes: N1DARP residues 20-33 with E32Q and position 8 of the peptide (Q27) to Ala; source: synthetic peptide (Chinese Peptide, Inc., Hangzhou; > 98% purity)

Kd [4]: 63.6 nM
B7: mAH2-6, alanine mutant of mAH2 (peptide)
peptide: YAKRIAYQLLSKQL
notes: N1DARP residues 20-33 with E32Q and position 6 of the peptide (F25) to Ala; source: synthetic peptide (Chinese Peptide, Inc., Hangzhou; > 98% purity)

Kd [4]: 288 nM
B8: mAH2-9, alanine mutant of mAH2 (Leu28 to Ala) (peptide)
peptide: YAKRIFYQALSKQL
notes: N1DARP residues 20-33 with E32Q and position 9 of the peptide (Leu28) to Ala; source: synthetic peptide (Chinese Peptide, Inc., Hangzhou; > 98% purity)

Kd [4]: 99 nM
B9: mAH2-13, alanine mutant of mAH2 (peptide)
peptide: YAKRIFYQLLSKAL
notes: N1DARP residues 20-33 with position 13 of the peptide (residue 32: Glu in N1DARP, Gln in mAH2) to Ala; source: synthetic peptide (Chinese Peptide, Inc., Hangzhou; > 98% purity)

Kd [4]: 55.5 nM
B10: mAH2-10, alanine mutant of mAH2 (peptide)
peptide: YAKRIFYQLASKQL
notes: N1DARP residues 20-33 with E32Q and position 10 of the peptide (L29) to Ala; source: synthetic peptide (Chinese Peptide, Inc., Hangzhou; > 98% purity)

Kd [4]: 83.9 nM
B11: mAH2-11, alanine mutant of mAH2 (peptide)
peptide: YAKRIFYQLLAKQL
notes: N1DARP residues 20-33 with E32Q and position 11 of the peptide (S30) to Ala; source: synthetic peptide (Chinese Peptide, Inc., Hangzhou; > 98% purity)

Source: paper PMC10504324, “A microprotein N1DARP encoded by LINC00261 promotes Notch1 intracellular domain (N1ICD) degradation via disrupting USP10-N1ICD interaction to inhibit chemoresistance in Notch1-hyperactivated pancreatic cancer” (Cell Discovery, 2023)
